Patent US20190367592A1 (AC IMMUNE, published 2019)
Where a chain is given by its changes, count along the chain named. Where “and” joins values, the source holds several entries; their conditions need not be identical. Identical values can stand only once.

B1: hu125B11 HC1 + hu113F5-F7 LC3 (antibody, V domains shown)
VH: EVQLVESGGGLVQPGGSLRLSCAASRFIFSNYWMNWVRQAPGKGLEWVAQIRLKSDNYATHYAESVKGRFTISRDDSKNTVYLQMNSLRAEDTAVYYCTGGTTYWGQGTLVTVSS
VL: DIQMTQSPSSLSASVGDRVTITCKASQNVGTAVAWYQQKPGKSPKLLIYSASRRFSGVPSRFSGSGSGTDFTLTISSLQPEDFATYYCQQFSTYPYTFGQGTKVEIK
B2: hu125B11 HC1 + hu113F5-F7 LC1 (antibody, V domains shown)
VH: B1 VH
VL: B1 VL with Y87F
B3: hu125B11 HC1 + 125B11 LC4 (antibody, V domains shown)
VH: B1 VH
VL: B1 VL with S43A, R53I, F55Y, S56T, S92R
B4: hu125B11 HC1 + 125B11 LC3 (antibody, V domains shown)
VH: B1 VH
VL: B1 VL with R53I, F55Y, S56T, S92R
B5: hu125B11 HC1 + 125B11 LC2 (antibody, V domains shown)
VH: B1 VH
VL: B1 VL with S43A, R53I, F55Y, S56T, Y87F, S92R
B6: hu125B11 HC1 + 125B11 LC1 (antibody, V domains shown)
VH: B1 VH
VL: B1 VL with R53I, F55Y, S56T, Y87F, S92R
B7: hu125B11 HC1 + hu113F5-F7 LC4 (antibody, V domains shown)
VH: B1 VH
VL: B1 VL with S43A
B8: hu125B11 HC1 + hu113F5-F7 LC2 (antibody, V domains shown)
VH: B1 VH
VL: B1 VL with S43A, Y87F
B9: 26C1 (antibody, mouse IgG2a, V domains shown)
VH: EVHLQQSGAELVRSGASVKLSCTASGFNIKDYYMYWVKQRPEQGLEWIGWIDPENGDTEYFPKFQGKATMTADTSSKTAYLQLSSLTSEDTAVYYCNAWRARATNSALDYWGQGTSVTVSS
VL: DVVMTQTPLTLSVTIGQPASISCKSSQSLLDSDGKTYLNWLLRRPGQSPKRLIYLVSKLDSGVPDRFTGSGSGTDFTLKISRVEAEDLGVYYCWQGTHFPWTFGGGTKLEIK
notes: recombinant murine IgG2a/kappa; label without subclone
B10: 11E10-B8 (antibody, mouse IgG2a, V domains shown)
VH: EVQLVESGGDLVKPGGSLKLSCAASGFTFRSYGMSWVRQTPDKRLEWVATISGGGSYTYYPDSVKGRFTISRDNAKNTLYLQMSSLKSEDTAMYYCAVSYDGAMDYWGQGTSVTVSS
VL: DVLMTQTPLSLPVSLGDQASISCRSSQSIVHSNGNTYLEWYLQKPGQSPKLLIYKVSNRFSGVPDRFSGSGSGTDFTLKISRVEAEDLGLYYCFQGSHVPWTFGGGTKLEIK
B11: 30G1-B2 (antibody, mouse IgG2a, V domains shown)
VH: QVQLQQSGAELVRPGASVTLSCKASGYTFTDYEMYWVKQTPVHGLEWIGAIDPETGDTAYNQKFKGKATLTADKSSNTAYMELRSLTSEDSAVYYCIRQYGNWFPYWGQGTLVTVSA
VL: DVVMTQTPLSLPVSLGDQASISCRSSQSLVHANGNTYLHWFLQKPGLSPKLLIYKVSNRFSGVPDRFSGGGSGTDFTLKITRLEAEDLGVYFCSQSTHVPFTFGSGTKLEIK
B12: 66F5-A1 (antibody, mouse IgG2a, V domains shown)
VH: QVQLQQSGAELVRPGASVTLSCKASGYTFIDYEMNWVKQTPVHGLEWIGAIDPENGGTAYNQKFKGKAIVTADKSSSTAYMELRSLTSEDSAVYYCSGPHFDYWGQGTTLTVSS
VL: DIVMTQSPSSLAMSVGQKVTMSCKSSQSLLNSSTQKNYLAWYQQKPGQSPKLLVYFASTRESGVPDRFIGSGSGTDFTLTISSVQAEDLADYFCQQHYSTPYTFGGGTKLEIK
B13: hu37D3-H9.v30.11 (antibody, V domains shown)
VH: EVQLVESGGGLVQPGGSLRLSCAASGLIFRSYGMSWVRQAPGKGLEWVATINSGGTYTYYPDSVKGRFTISRDNSKNTLYLQMNSLRAEDTAVYYCANSYSGAMDYWGQGTLVTVSS
VL: DDVLTQTPLSLPVTPGQPASISCRSSQSIVHSRGNTYFEWYLQKPGQSPQLLIYKVSNRFSGVPDRFSGSGSGTDFTLKISRVEAEDVGVYYCFQGSLVPWTFGQGTKVEIK
B14: hu37D3.v28.A26 (antibody, V domains shown)
VH: B13 VH
VL: B13 VL with D2V, L4M, R33N, L98H
B15: hu37D3.v28.A28 (antibody, V domains shown)
VH: B13 VH
VL: B13 VL with D2V, L4M, R33N, F38L
B16: hu37D3.v28.A18 (antibody, V domains shown)
VH: B13 VH
VL: B13 VL with D2V, R33N, L98H
B17: hu37D3.v28.A8 (antibody, V domains shown)
VH: B13 VH
VL: B13 VL with L4M, R33N
B18: hu37D3.v28.A10 (antibody, V domains shown)
VH: B13 VH
VL: B13 VL with L4M, R33N, L98H
B19: hu37D3.v28.A20 (antibody, V domains shown)
VH: B13 VH
VL: B13 VL with D2V, R33N, F38L
B20: hu37D3.v28.A14 (antibody, V domains shown)
VH: B13 VH
VL: B13 VL with L4M, R33N, F38L, L98H
B21: hu37D3.v28.A24 (antibody, V domains shown)
VH: B13 VH
VL: B13 VL with D2V, L4M, R33N
B22: hu37D3.v28.A16 (antibody, V domains shown)
VH: B13 VH
VL: B13 VL with D2V, R33N
B23: hu37D3.v28.A22 (antibody, V domains shown)
VH: B13 VH
VL: B13 VL with D2V, R33N, F38L, L98H

The binders below were run against T1, recombinant human Tau monomer, 2N4R isoform (amino acids 2-441) (human, UniProt P10636-8 2-441) (assay: SPR screen, hIgG captured, Tau monomer analyte).
T1 construct: range 2-441; N-terminal His-tag removed with TEV protease; also called monomeric Tau
T1 sequence (P10636 other isoform, or with tags, fused parts or gaps limits assumed): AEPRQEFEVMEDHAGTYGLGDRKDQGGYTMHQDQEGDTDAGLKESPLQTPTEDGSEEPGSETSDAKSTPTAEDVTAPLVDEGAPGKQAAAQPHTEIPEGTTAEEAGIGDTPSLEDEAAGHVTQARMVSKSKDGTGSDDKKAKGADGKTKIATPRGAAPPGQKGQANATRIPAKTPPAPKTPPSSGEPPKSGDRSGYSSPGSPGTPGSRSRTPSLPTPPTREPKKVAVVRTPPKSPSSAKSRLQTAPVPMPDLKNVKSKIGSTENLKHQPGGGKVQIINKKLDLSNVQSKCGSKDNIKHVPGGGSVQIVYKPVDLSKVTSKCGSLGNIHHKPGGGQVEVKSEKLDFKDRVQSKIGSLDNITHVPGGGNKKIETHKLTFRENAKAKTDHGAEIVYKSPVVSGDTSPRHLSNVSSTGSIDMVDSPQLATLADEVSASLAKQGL
Source text: Antibody 125B11-H3 was humanized onto VH3 and Vκ1 consensus frameworks. The heavy chain graft included murine residues at position 78 (Kabat numbering system). The Vκ1 graft included murine residues in framework positions 43 and 87. The light chain of 113F5-F7 was also humanized onto the Vκ1 framework, with additional murine residues at framework positions 43 and 87. Humanized variant heavy chains (125B11) and light chains (125B11 and 113F5-F7) were co-transfected in multiple combinations and purified in 96-well format as described above. Humanized variants were then screened for affinity for human Tau monomer using the Biacore human IgG capture kit, a Series S CM5 chip and a Biacore T200 instrument. Antibodies were diluted to 2 μg/ml and captured for 15 seconds at 10 μl/min. Association and dissociation of 0, 100 and 500 nM human Tau monomer in HBSP was monitored for 180s and 300s respectively at a flow rate of 40 μl/min. A 1:1 binding model was applied to the results (Table 9).
With B1 the Kd was 61 nM. With B2 the Kd was 57 nM. Work on B3 yielded a Kd of 23 nM. B4 gave a Kd of 21 nM. With B5 the Kd was 20 nM. For B6, the Kd was 16 nM and 19 nM. B7 was tested, and the Kd was 71 nM. For B8, the Kd was 67 nM.

The binders below were run against T1, recombinant human Tau monomer, 2N4R … (assay: SPR, mIgG2a captured, Tau monomer analyte, 1:1 fit).
Source text: Antibody heavy and light chains were constructed via gene synthesis and subcloning of the resulting DNA into murine IgG2a (heavy chain) and murine kappa (light chain) mammalian expression vectors. Antibodies were expressed in CHO or 293T cells by transient co-transfection of the heavy chain and light chain plasmids and were purified with affinity resin MabSelectSure (GE Healthcare Life Sciences). Purified recombinant antibodies were screened for binding to Tau monomer protein on a Biacore T200 surface plasmon resonance instrument using a mouse IgG capture kit and a Series S CM5 chip. Antibodies in mIgG2a format diluted in 10 mM HEPES pH7.4, 150 mM NaCl, 0.05% Tween 20 (running buffer, HBSP) were captured for 30 or 45 seconds at a concentration of 1 μg/ml (antibodies 26C1, 94B2-C1, 52F6-F11.v1, 52F6-F11.v2, 11E10-B8, 55E7-F11, 125B1-H3, 123E9-A1, 30G1-B2, 66F5-A1, 89F4-A1, 93A8-D2 and 126F11-G11) or for 70 or 150 seconds at a concentration of 0.1 μg/ml (antibodies 19H6-F7, 3A4-H4, 54C1-H11 and 37D3-H9) using a flow rate of 10 μl/min. […] Association and dissociation times were monitored for 180-480 seconds and for 300-600 seconds respectively. Antibody 37D3-H9 was selected for further analysis due to the high affinity (Table 6) and the absence of NXS/T glycosylation motifs in the CDRs.
Binder B9 has a Kd of 17 nM, a koff of 0.0007 s⁻¹ and a kon of 40000 M⁻¹ s⁻¹. B10 was tested, and the Kd was 108 nM, the koff was 0.02 s⁻¹ and the kon was 200000 M⁻¹ s⁻¹. Work on B11 yielded a Kd of 20 nM, a koff of 0.008 s⁻¹ and a kon of 400000 M⁻¹ s⁻¹. Work on B12 yielded a Kd of 105 nM, a koff of 0.008 s⁻¹ and a kon of 80000 M⁻¹ s⁻¹.

The binders below were run against T1, recombinant human Tau monomer, 2N4R … (assay: SPR; Normalized Rmax post-stress (2 weeks 40 C) / pre-stress).
Description: (§1) Briefly, IgGs in 1 mL culuture were captured using tip columns that were custom packed with 20 μL MabSelect SuRe resin (Glygen Corp & GE Healthcare). After washing with 1×PBS pH 7.4, IgGs were eluted into 160 μL of 50 mM phosphoric acid pH 3 and neutralized with 12 μL of 20×PBS pH 11. MabSelect SuRe tip columns were stripped in 0.1 M NaOH and regenerated with 1×PBS pH 7.4 for consecutive use of up to 15 times. Purified antibodies in 96-well format were normalized to 0.1 mg/ml using a Hamilton Star liquid handling robot. The “pre-stress” samples were kept at approximately 4° C. and the “post-stress” samples were incubated at 40° C. for two weeks in a PCR machine. Functional stability of the variants was compared by running surface plasmon resonance kinetics experiments with the “pre-stress” and “post-stress” antibody preps. The antibodies were assessed using a human antibody capture CM5 Series S chip generated using the GE Biacore human IgG capture kit and a Biacore T200 instrument. Antibodies diluted to 2 μg/ml were immobilized using a 15 second injection time and 10 μl/min flow rate. Binding to Tau monomer at 0 nM, 26.5 nM and 265 nM, at 25° C., using a flow rate of 40 μl/min, was monitored for a 180 second association phase followed by a 300 second dissociation phase. Samples were run in 10 mM HEPES pH7.4, 150 mM NaCl, 0.05% Tween 20 (HBSP) using a multi-cycle kinetics format. Data was analyzed using BIAevaluation software, fitting a 1:1 binding model. The resulting affinity (KD) values are shown in FIG. 8A-D. A Stability Index was also calculated, using the rationale that affinity-compromised antibodies (due for example to deamidation of key residues) are expected to contribute equally to the IgG capture level (“Ligand Level”) but to contribute less to the measured Tau binding, and that this would be reflected in the experimentally derived value for Rmax. To account for variations in the amount of each antibody captured, Rmax was normalized for the antibody capture level (as measured by “Ligand Level”, Response Units immobilized during antibody capture). Thus Normalized Rmax is calculated as the experimental Rmax (units=RU) divided by the “Ligand Level” (Evaluation output representing the RU captured during the hIgG capture step, units=RU), and Stability Index is calculated here as Normalized Rmax (post-stress) divided by Normalized Rmax (pre-stress).
With B13 the “Stability Index” value was 86%. In the case of B14, the “Stability Index” value is reported as 78%. For B15, the “Stability Index” value was 89%. With B16 the “Stability Index” value was 83%. In the case of B17, the “Stability Index” value is reported as 57%. For B18, the “Stability Index” value was 37%. B19 was tested, and the “Stability Index” value was 93%. B20 was tested, and the “Stability Index” value was 70%. For B21, the “Stability Index” value was 95%. In the case of B22, the “Stability Index” value is reported as 89%. B23 was tested, and the “Stability Index” value was 70%.

What follows are binders tested against T1, recombinant human Tau monomer, 2N4R … (assay: SPR, captured IgG, Tau monomer analyte, 1:1 model; fit-quality column: Yes).
Description: as §1
For B13, the Kd was 20.9 nM. B14 was tested, and the Kd was 22.5 nM. B15 was tested, and the Kd was 11.4 nM. Work on B16 yielded a Kd of 17.3 nM. For B17, the Kd was 1.8 nM. For B18, the Kd was 41.8 nM. B19 gave a Kd of 7.1 nM. For B20, the Kd was 51.4 nM. With B21 the Kd was 4.7 nM. For B22, the Kd was 3.9 nM. Binder B23 has a Kd of 27.8 nM.
